Test [1] has as its target human chemokine CCL5 (RANTES), commercial recombinant (human) (UniProt P13501). The experiment in a line: ELISA; 50 pg chemokine mixed in solution with 2-400 ng recombinant M3 in 110 ul, 21 C, 1.5 h with gentle shaking, then applied to DuoSet sandwich ELISA plates; drop of OD492 against chemokine without M3 = % inhibition; IC25/IC50 = M3 concentration that removes 25 or 50% of the chemokine; three independent experiments. For orientation: In an ELISA, binding on a coated surface is turned into a signal by an enzyme label.
UniProt P13501, sequence (P13501 24-91): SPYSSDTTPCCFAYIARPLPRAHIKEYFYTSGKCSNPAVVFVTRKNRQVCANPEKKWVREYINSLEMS

The target of test [2] is human chemokine CXCL8 (IL-8), commercial recombinant (human). The description is as above.

A value given as a limit tells only on which side of the number the result lay.

Broadly, the IC25 is the concentration at which the effect reaches the 25% level. One may read the IC50 as the point on the concentration scale where inhibition reaches its midpoint. With “M3-E70A mutant of MHV-68 M3 protein, recombinant, C-terminal His-tag (natural protein)”, in test [1], the IC25 is 3.5 nM and the IC50 is 8.7 nM. In test [2], the 25% effect concentration (IC25) was found to be 11.5 nM.
The corresponding values for “M3-T272G mutant of MHV-68 M3 protein, recombinant, C-terminal His-tag (natural protein)” are 30.2 nM, greater than 90 nM and 42.5 nM.
Take “wild-type M3 protein of murine gammaherpesvirus 68 (MHV-68), recombinant, C-terminal His-tag (natural protein)”: in test [1], the IC25 is 7.1 nM and the half-maximal inhibitory concentration (IC50) was determined as 16.2 nM. Moreover, the IC25 in test [2] is 8.7 nM.

Values taken from paper PMC6603146.
